Data set [1] deals with TAMRA-labeled caspase-1^CARD-SUMO with C-terminal sortase motif (His-MBP removed by TEV protease in the assay) (human) (UniProt P29466). Nature of the data set: fluorescence polarisation.
The target of data set [2] is T1, His-GFP-caspase-1^CARD (wild type) (human, UniProt P29466 1-91).
T1 sequence (looked up): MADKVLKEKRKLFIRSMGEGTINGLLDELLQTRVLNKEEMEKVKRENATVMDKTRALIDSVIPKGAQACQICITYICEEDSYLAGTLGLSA
The experiment in a line: fluorescence polarisation. A general note: Fluorescence polarisation rises when a labelled molecule tumbles more slowly, as on binding a larger partner.

Data set [3] deals with the molecule itself. Nature of the data set: SEC.

In general, Ki refers to the equilibrium dissociation constant of an inhibitor or competing ligand from its target. Lower therefore signals a stronger hold on the target.

In data set [1], “His-tagged human inhibitor of CARD (INCA) (from UniProt Q5XLA6 1-110) (natural protein)” had an inhibitory constant (Ki) of 9.4 nM.

B1: His-tagged human inhibitor of CARD (INCA) (natural protein, UniProt Q5XLA6 1-110, looked up)
chain: MADKVLKEKRKQFIRSVGEGTINGLLGELLETRVLSQEEIEIVKCENATVMDKARALLDSVIRKGAPACQICITYICEEDSHLAGTLGLSAGPTSGNHLTTQDSQIVLPS
Consider B1, for which the Ki in data set [2] was determined as 4.3 ± 1.4 nM.

B2: INCA R55E (natural protein, human, UniProt Q5XLA6 1-110, looked up)
chain: MADKVLKEKRKQFIRSVGEGTINGLLGELLETRVLSQEEIEIVKCENATVMDKAEALLDSVIRKGAPACQICITYICEEDSHLAGTLGLSAGPTSGNHLTTQDSQIVLPS
In data set [2], B2 showed a Ki of around 1700 nM.

B3: His-MBP-ICEBERG (natural protein, human)
chain: ADQLLRKKRRIFIHSVGAGTINALLDCLLEDEVISQEDMNKVRDENDTVMDKARVLIDLVTGKGPKSCCKFIKHLCEEDPQLASKMGLH
Regarding B3, in data set [3], the binding result is listed as “binds”.

(Values after article PMC4856535 (Nature structural & molecular biology, 2016).)
